Data on one molecule can be found in patent CN117192118A (DRAGONBOAT BIOPHARMACEUTICAL SHANGHAI CO LTD, dated 2023).

For assay [1], the target named is T1, 人CD47 (human, UniProt Q08722 19-139, limits assumed).
T1 construct: The construct is not described
Briefly: ELISA competition, blocking of CD47 binding to SIRPα.

Assay [2] concerns the target T1, 人CD47. Briefly: ELISA. In general terms: ELISA stands for enzyme-linked immunosorbent assay.
In assay [3] the target is T2, 人CLDN18.2 (human, UniProt P56856-2 1-261, limits assumed).
T2 construct: The construct and its source are not described; P56856 is the CLDN18 entry; CLDN18.2 is its isoform 2 (A2)
T2 sequence (looked up): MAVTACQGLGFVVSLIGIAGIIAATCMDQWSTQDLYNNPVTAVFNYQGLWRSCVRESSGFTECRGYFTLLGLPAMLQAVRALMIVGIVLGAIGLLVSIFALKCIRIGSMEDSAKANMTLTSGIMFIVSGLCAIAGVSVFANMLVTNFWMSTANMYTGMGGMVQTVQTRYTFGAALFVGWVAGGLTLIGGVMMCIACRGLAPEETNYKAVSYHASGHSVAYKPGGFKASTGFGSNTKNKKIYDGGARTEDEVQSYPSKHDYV
Briefly: ELISA.

Assay [4] has as its target T1, 人CD47. Briefly: BLI. Background: Biolayer interferometry detects binding as a change in optical thickness at a sensor tip.
In assay [5] the target is T2, 人CLDN18.2. Briefly: BLI.

By IC50 is commonly meant the concentration that gives 50% inhibition. A low value points to greater potency in that assay. One may read the EC50 as the midpoint of the concentration-response curve. In general, Kd refers to the free concentration of one partner at which half of the binding sites on the other are occupied at equilibrium, for simple one-to-one binding.

T1 sequence (Q08722 19-139 limits assumed): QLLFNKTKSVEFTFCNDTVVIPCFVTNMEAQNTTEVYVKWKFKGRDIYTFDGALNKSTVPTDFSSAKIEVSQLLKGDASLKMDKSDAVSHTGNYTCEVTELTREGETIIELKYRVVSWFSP

B1: 抗CD47-CLDN18.2双特异性抗体双抗A (bispecific antibody, human IgG1, kappa)
heavy: not shown
light: DIQMTQSPSSLSASVGDRVTITCRASQDISNHLNWYQQKPGKAPKLLIYYTSRIHSGVPSSFRGSGSGTDYTLTISSLQPEDIATYFCQQGYTLPFTFGSGTKLEIKRTVAAPSVFIFPPSDEQLKSGTASVVCLLNNFYPREAKVQWKVDNALQSGNSQESVTEQDSKDSTYSLSSTLTLSKADYEKHKVYACEVTHQGLSSPVTKSFNRGEC
notes: The short chain is the A7H3L3 kappa light chain; Expressed in CHO-K1; also called 本发明抗体
B1 had an IC50 with 人CD47 [1] of 2.2 µg/mL. Moreover, the EC50 in the assay with 人CD47 [2] is 0.0462 µg/mL; with 人CLDN18.2 [3], 0.121 µg/mL. Further, the Kd with 人CD47 [4] amounted to 21.8 nM; in the assay with 人CLDN18.2 [5] it was 1.87 nM.
